Molecular target: T1, human nucleolin (His-tag fusion protein) (human, UniProt P19338 1-710)
T1 construct: nucleolin, human, amplified from HEK293 cDNA into pET-28a; the printed primers run from the start codon to the stop codon; this is read from the printed primers; source: E. coli Rosetta 2(DE3), purified (Ni-NTA agarose)
Experiment: SPR; Biacore T100, 25 °C; one protein immobilised on a CM5 chip (200 RU), analytes at 0-50 nM, 180 s at 10 μl/min; 25 mM Tris-HCl, 500 mM NaCl, 10% glycerol, 1% Triton X-100, pH 8.0
Settings: both partners purified

T1 sequence (P19338 whole entry, the tested form may be a part): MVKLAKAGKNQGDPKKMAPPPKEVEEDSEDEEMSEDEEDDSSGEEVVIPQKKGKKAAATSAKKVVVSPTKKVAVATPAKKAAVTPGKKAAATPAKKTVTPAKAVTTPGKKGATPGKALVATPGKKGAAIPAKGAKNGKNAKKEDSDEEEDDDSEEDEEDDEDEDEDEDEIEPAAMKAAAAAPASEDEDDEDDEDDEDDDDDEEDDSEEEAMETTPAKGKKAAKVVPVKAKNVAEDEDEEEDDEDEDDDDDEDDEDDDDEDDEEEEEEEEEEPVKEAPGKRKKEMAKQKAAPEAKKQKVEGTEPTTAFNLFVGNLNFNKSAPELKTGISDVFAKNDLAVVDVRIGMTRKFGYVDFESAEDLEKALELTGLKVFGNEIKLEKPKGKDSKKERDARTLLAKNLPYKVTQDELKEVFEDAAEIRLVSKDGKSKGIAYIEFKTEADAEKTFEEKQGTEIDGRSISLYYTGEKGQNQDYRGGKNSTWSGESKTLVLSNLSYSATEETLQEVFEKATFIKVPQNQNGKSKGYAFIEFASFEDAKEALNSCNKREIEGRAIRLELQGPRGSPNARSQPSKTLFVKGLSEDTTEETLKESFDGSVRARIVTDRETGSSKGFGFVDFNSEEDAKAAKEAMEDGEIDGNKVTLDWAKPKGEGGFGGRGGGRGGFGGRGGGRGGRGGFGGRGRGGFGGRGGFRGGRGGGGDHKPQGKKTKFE

B1: human fibrillarin (His-tag fusion protein) (natural protein, UniProt P22087 1-321, looked up)
chain: MKPGFSPRGGGFGGRGGFGDRGGRGGRGGFGGGRGRGGGFRGRGRGGGGGGGGGGGGGRGGGGFHSGGNRGRGRGGKRGNQSGKNVMVEPHRHEGVFICRGKEDALVTKNLVPGESVYGEKRVSISEGDDKIEYRAWNPFRSKLAAAILGGVDQIHIKPGAKVLYLGAASGTTVSHVSDIVGPDGLVYAVEFSHRSGRDLINLAKKRTNIIPVIEDARHPHKYRMLIAMVDVIFADVAQPDQTRIVALNAHTFLRNGGHFVISIKANCIDSTASAEAVFASEVKKMQQENMKPQEQLTLEPYERDHAVVVGVYRPPPKVKN
notes: fibrillarin, human, amplified from HEK293 cDNA into pET-28a; the printed primers run from the start codon to the stop codon; this is read from the printed primers; source: E. coli Rosetta 2(DE3), purified (Ni-NTA agarose)
B1: binds.
